Laboratory results from PMC12412624, “Engineered Cas12j‐8 is a Versatile Platform for Multiplexed Genome Modulation in Mammalian Cells”.

Key:
Cas12j-8 WT = target: T1, Cas12j-8 WT (bacteriophage (metagenome)); assay: HEK293T cells; details: tags: NLS
T1 chain: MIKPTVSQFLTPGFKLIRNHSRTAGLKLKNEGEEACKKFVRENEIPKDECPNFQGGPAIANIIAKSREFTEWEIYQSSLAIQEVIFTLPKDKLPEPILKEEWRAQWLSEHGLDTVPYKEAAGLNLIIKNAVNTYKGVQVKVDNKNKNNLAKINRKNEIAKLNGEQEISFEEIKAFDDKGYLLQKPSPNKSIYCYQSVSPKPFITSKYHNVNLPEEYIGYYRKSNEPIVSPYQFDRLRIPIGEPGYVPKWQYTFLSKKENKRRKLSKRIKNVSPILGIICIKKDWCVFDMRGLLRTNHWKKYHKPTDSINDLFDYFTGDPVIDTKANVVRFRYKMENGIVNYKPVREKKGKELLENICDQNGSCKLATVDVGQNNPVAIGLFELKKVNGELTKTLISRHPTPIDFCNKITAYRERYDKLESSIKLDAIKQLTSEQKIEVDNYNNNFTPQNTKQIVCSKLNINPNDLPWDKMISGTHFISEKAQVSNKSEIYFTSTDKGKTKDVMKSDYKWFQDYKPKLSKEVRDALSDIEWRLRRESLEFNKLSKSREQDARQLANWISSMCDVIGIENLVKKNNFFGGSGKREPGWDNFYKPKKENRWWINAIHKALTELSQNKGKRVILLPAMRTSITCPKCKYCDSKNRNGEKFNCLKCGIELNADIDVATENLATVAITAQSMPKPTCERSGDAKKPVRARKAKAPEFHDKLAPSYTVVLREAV

[1] = target: T2, Cas12j-8 E258R+D313R+D495R+D527R+E547R (bacteriophage (metagenome), E258R;D313R;D495R;D527R;E547R); assay: HEK293T cells; details: tags: NLS
T2 chain: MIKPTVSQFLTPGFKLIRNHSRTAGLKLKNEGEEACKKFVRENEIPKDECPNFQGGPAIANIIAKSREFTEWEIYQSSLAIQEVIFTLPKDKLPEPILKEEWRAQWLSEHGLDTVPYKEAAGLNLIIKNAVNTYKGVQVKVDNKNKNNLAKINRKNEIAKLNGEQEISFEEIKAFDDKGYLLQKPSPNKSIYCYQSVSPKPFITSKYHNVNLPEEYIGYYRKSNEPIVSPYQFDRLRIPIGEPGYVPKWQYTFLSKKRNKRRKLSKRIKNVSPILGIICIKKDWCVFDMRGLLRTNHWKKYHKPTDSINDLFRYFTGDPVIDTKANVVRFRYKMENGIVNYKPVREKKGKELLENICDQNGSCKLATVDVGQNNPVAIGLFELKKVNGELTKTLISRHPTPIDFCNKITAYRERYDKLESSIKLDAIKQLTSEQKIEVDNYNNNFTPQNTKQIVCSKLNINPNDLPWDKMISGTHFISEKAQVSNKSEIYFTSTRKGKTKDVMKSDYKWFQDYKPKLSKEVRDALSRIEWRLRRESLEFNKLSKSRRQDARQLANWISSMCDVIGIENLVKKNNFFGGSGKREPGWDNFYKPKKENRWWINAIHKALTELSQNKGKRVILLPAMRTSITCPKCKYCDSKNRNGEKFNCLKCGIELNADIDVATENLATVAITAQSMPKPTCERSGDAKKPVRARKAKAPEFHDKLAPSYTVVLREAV

| Binder | indel frequency (Cas12j-8 WT) | indel frequency [1] |
| --- | --- | --- |
| tcfsite3 (mixed) RNA: CUUUCAAGACUAAUAGAUUGCUCCUUACGAGGAGACCUAAACCAAGUCCCAGACAU DNA 1: TTCCTAAACCAAGTCCCAGACAT DNA 2: ATGTCTGGGACTTGGTTTAGGAA | 3.82 % indels | – |
| pcsk9site5 (mixed) RNA: CUUUCAAGACUAAUAGAUUGCUCCUUACGAGGAGACUGUCACAGAGUGGGACAUCA DNA 1: TTGTGTCACAGAGTGGGACATCA DNA 2: TGATGTCCCACTCTGTGACACAA | 25.8 % indels | 61.2 % indels |
| cd274site6 (mixed) RNA: CUUUCAAGACUAAUAGAUUGCUCCUUACGAGGAGACGUUGUGGAUCCAGUCACCUC DNA 1: TTGGTTGTGGATCCAGTCACCTC DNA 2: GAGGTGACTGGATCCACAACCAA | 21 % indels | 59.2 % indels |
| cxcr4site8 (mixed) RNA: CUUUCAAGACUAAUAGAUUGCUCCUUACGAGGAGACAGCACAUCAUGGUUGGCCUU DNA 1: TTCAGCACATCATGGTTGGCCTT DNA 2: AAGGCCAACCATGATGTGCTGAA | 10.9 % indels | 36.5 % indels |
| cishsite3 (mixed) RNA: CUUUCAAGACUAAUAGAUUGCUCCUUACGAGGAGACACUGACAGCGUGAACAGGUA DNA 1: TTCACTGACAGCGTGAACAGGTA DNA 2: TACCTGTTCACGCTGTCAGTGAA | 2.97 % indels | 43.1 % indels |
| apobsite4 (mixed) RNA: CUUUCAAGACUAAUAGAUUGCUCCUUACGAGGAGACGUGGCAAAUCCUCCAGAGAU DNA 1: TTGGTGGCAAATCCTCCAGAGAT DNA 2: ATCTCTGGAGGATTTGCCACCAA | 11.9 % indels | 27.8 % indels |
| tigitsite4 (mixed) RNA: CUUUCAAGACUAAUAGAUUGCUCCUUACGAGGAGACUAGGACCUCCAGGAAGAUUC DNA 1: TTCTAGGACCTCCAGGAAGATTC DNA 2: GAATCTTCCTGGAGGTCCTAGAA | – | 28.3 % indels |
| tgfbr2site8 (mixed) RNA: CUUUCAAGACUAAUAGAUUGCUCCUUACGAGGAGACCCAGGUUGAACUCAGCUUCU DNA 1: TTCCCAGGTTGAACTCAGCTTCT DNA 2: AGAAGCTGAGTTCAACCTGGGAA | 14.8 % indels | 51.6 % indels |
| vegfasite4 (mixed) RNA: CUUUCAAGACUAAUAGAUUGCUCCUUACGAGGAGACUUGUGCUGUAGGAAGCUCAU DNA 1: TTGTTGTGCTGTAGGAAGCTCAT DNA 2: ATGAGCTTCCTACAGCACAACAA | 5.55 % indels | – |
| angptl3site12 (mixed) RNA: CUUUCAAGACUAAUAGAUUGCUCCUUACGAGGAGACCAGUCUUCCAACUCAAUUCG DNA 1: TTCCAGTCTTCCAACTCAATTCG DNA 2: CGAATTGAGTTGGAAGACTGGAA | – | 22.2 % indels |
| cxcr4site5 (mixed) RNA: CUUUCAAGACUAAUAGAUUGCUCCUUACGAGGAGACGGAACUUCCUAUGCAAGGCA DNA 1: TTGGGAACTTCCTATGCAAGGCA DNA 2: TGCCTTGCATAGGAAGTTCCCAA | 35.6 % indels | 61.4 % indels |
| ccr5site9 (mixed) RNA: CUUUCAAGACUAAUAGAUUGCUCCUUACGAGGAGACAGAUCUGGUAAAGAUGAUUC DNA 1: TTGAGATCTGGTAAAGATGATTC DNA 2: GAATCATCTTTACCAGATCTCAA | 45.4 % indels | 72.7 % indels |
| vegfasite3 (mixed) RNA: CUUUCAAGACUAAUAGAUUGCUCCUUACGAGGAGACUGCUGUCUUGGGUGCAUUGG DNA 1: TTCTGCTGTCTTGGGTGCATTGG DNA 2: CCAATGCACCCAAGACAGCAGAA | 44.7 % indels | 77.4 % indels |
| tcfsite8 (mixed) RNA: CUUUCAAGACUAAUAGAUUGCUCCUUACGAGGAGACCAGGCUCUGACUCAGGGAAG DNA 1: TTGCAGGCTCTGACTCAGGGAAG DNA 2: CTTCCCTGAGTCAGAGCCTGCAA | 2.92 % indels | – |
| apobsite10 (mixed) RNA: CUUUCAAGACUAAUAGAUUGCUCCUUACGAGGAGACGCAGGCGACCAGUGGGCGAG DNA 1: TTGGCAGGCGACCAGTGGGCGAG DNA 2: CTCGCCCACTGGTCGCCTGCCAA | 8.3 % indels | 22.1 % indels |
| ccr5site4 (mixed) RNA: CUUUCAAGACUAAUAGAUUGCUCCUUACGAGGAGACCUUCUUACUGUCCCCUUCUG DNA 1: TTCCTTCTTACTGTCCCCTTCTG DNA 2: CAGAAGGGGACAGTAAGAAGGAA | 28.2 % indels | 68.7 % indels |
| alas1site3 (mixed) RNA: CUUUCAAGACUAAUAGAUUGCUCCUUACGAGGAGACGUGAUGAGGGAGUCUGAAUA DNA 1: TTGGTGATGAGGGAGTCTGAATA DNA 2: TATTCAGACTCCCTCATCACCAA | 10.1 % indels | 34.2 % indels |
| cishsite2 (mixed) RNA: CUUUCAAGACUAAUAGAUUGCUCCUUACGAGGAGACGCUCACUCUCUGUCUGGGCU DNA 1: TTGGCTCACTCTCTGTCTGGGCT DNA 2: AGCCCAGACAGAGAGTGAGCCAA | – | 16.3 % indels |
| ccr5site5 (mixed) RNA: CUUUCAAGACUAAUAGAUUGCUCCUUACGAGGAGACGAAAUACAAUGUGUCAACUC DNA 1: TTGGAAATACAATGTGTCAACTC DNA 2: GAGTTGACACATTGTATTTCCAA | 12.1 % indels | 54 % indels |
| apobsite9 (mixed) RNA: CUUUCAAGACUAAUAGAUUGCUCCUUACGAGGAGACCAAGCAGAAGCCAGAAGUGA DNA 1: TTGCAAGCAGAAGCCAGAAGTGA DNA 2: TCACTTCTGGCTTCTGCTTGCAA | 1.17 % indels | 15.6 % indels |
| cd274site9 (mixed) RNA: CUUUCAAGACUAAUAGAUUGCUCCUUACGAGGAGACCUCAGGAUCUAAUCUCCUAA DNA 1: TTCCTCAGGATCTAATCTCCTAA DNA 2: TTAGGAGATTAGATCCTGAGGAA | 9.46 % indels | 34.3 % indels |
| ccr5site10 (mixed) RNA: CUUUCAAGACUAAUAGAUUGCUCCUUACGAGGAGACCAUACAGUCAGUAUCAAUUC DNA 1: TTCCATACAGTCAGTATCAATTC DNA 2: GAATTGATACTGACTGTATGGAA | 4.92 % indels | – |
| sod1site5 (mixed) RNA: CUUUCAAGACUAAUAGAUUGCUCCUUACGAGGAGACAUUAUUAGGCAUGUUGGAGA DNA 1: TTCATTATTAGGCATGTTGGAGA DNA 2: TCTCCAACATGCCTAATAATGAA | 16.5 % indels | 59.7 % indels |
| alas1site9 (mixed) RNA: CUUUCAAGACUAAUAGAUUGCUCCUUACGAGGAGACGCAUGACUCCAUCCCGAUCC DNA 1: TTGGCATGACTCCATCCCGATCC DNA 2: GGATCGGGATGGAGTCATGCCAA | 20 % indels | 44 % indels |
